Changes are numbered by the printed parent chain.
B1: GFP2-NHT: 3Cs fixed-pair construct of one GFP-targeting gRNA and one NHT control gRNA (nucleic acid)
guide: GAAAGGACGAAACACCGTCAGGATCAGGGTGTATGGCGTTTTAGAGCTATGCTTTTTTAAAAAAGCATAGCTCTAAAACCGATGTTGTGGCGGATCTTGCGAGGTACCCAAGCG
B2: Cdk2/Cdk2: fixed-pair gRNA construct with two gRNAs targeting Cdk2 (nucleic acid)
guide: GAAAGGACGAAACACCGACAGGTTGCCAGTAAAAACAGTTTAGAGACGCTCGTCTCTAAACCTCCCGTCAACTTGTTTCTGCGAGGTACCCAAGCG
modifications: expressed or natural sequence
B3: NHT-GFP2: 3Cs fixed-pair construct of one NHT control gRNA and one GFP-targeting gRNA (nucleic acid)
guide: GAAAGGACGAAACACCGGAAGGGCATCGACTTCAAGGGTTTTAGAGCTATGCTTTTTTAAAAAAGCATAGCTCTAAAACGCATGTTGTGGCGGATCTTGCGAGGTACCCAAGCG
B4: GFP2-GFP1: fixed-pair combination of two different GFP-targeting gRNAs (nucleic acid)
guide: B3 guide with G80C, C81G
modifications: expressed or natural sequence
notes: fixed-pair combination of two different GFP-targeting gRNAs

Columns and labels:
[1] = test system: GFP-expressing hTERT-RPE1 cells; assay: GFP depletion by FACS after lentiviral transduction with enhanced 3Cs fixed-pair gRNA constructs; type: cell-based, human; settings: transduced 48 hours, then puromycin selection another 4 days
Protocol: (§1) GFP-expressing hTERT-RPE1 cells were transduced with them for 48 hours, after which a selection pressure (puromycin) for another 4 days was applied before the cells were analyzed by FACS and immunoblotting for which wildtype (wt) and GFP-positive cells (GFP) served as controls. […] In addition, GFP deletion efficiency was confirmed by immunoblotting of GFP, confirming the FACS finding (FIG. 15b). Fluorescent proteins expressed in human cells reflect an artificial situation, the inventors therefore asked if endogenously expressed genes in RPE1 cells would similarly be depleted more efficiently by two gRNAs. To address this question, RPE1 cells were transduced with fixed-pair gRNA constructs encoding for NHT/NHT, NHT/Cdk2, Cdk2/NHT, or Cdk2/Cdk2.
RPE1 cells were seeded at an appropriate density for each experiment with a maximal confluency of 60-70% in DMEM/F12 (Thermo Fisher Scientific), supplemented with 10% FBS and 1% penicillin-ptreptomycin (Sigma). At the day of transduction, polybrene was added to the media to a final concentration of 8 μg/mL, as well as viral supernatant according to the previously determined viral titer. The next morning, the media was replaced with fresh media and the cells were subjected to antibiotic selection or experimental analysis.
All samples were analyzed on a FACSCanto II flow cytometer (BD Biosciences), and data were processed by FlowJo software (FlowJo, LLC). Gating was carried out on the basis of viable and single cells that were identified on the basis of their scatter morphology.

Cdk2 = assay: Depletion of endogenous Cdk2 by fixed-pair gRNA constructs (immunoblot); type: cell-based, human; settings: RPE1 cells, compared with either single gRNA
Protocol: as §1
Preparation of lysates and immunoblot analyses were performed as described previously using Tris lysis buffer (50 mM Tris-HCl (pH 7.8), 150 mM NaCl, 1% IGEPAL CA-630) containing 20 mM NaF, 20 mM β-glycerophosphate, 0.3 mM Na-vanadate, 20 μg/ml RNase A, 20 μg/ml DNase and 1/300 protease inhibitor cocktail (Sigma-Aldrich, P8340) and phosphatase inhibitor cocktail #2 (Sigma-Aldrich, P5726). […] Protein levels were visualized with Pierce ECL Western Blotting Substrate on a BioRad ChemiDoc MP imaging system and analyzed with Bio-Rad Image Lab software (version 4.1 build 16).

Molecule	GFP-positive cells by FACS [1]	depletion of endogenous Cdk2 (Cdk2)
B1	strong reduction of GFP-positive cells	
B2		more efficiently depleted
B3	strong reduction of GFP-positive cells	
B4	below the detection limit	

From patent US12286624B2, “Method for generating a gene editing vector with fixed guide RNA pairs” (Johann Wolfgang Goethe-Universität Frankfurt am Main, priority 2018, dated 2025)
